Target: T1, SynRuvC E75A (Synechocystis sp. PCC6803, UniProt Q55506 1-167, E75A)
T1 sequence: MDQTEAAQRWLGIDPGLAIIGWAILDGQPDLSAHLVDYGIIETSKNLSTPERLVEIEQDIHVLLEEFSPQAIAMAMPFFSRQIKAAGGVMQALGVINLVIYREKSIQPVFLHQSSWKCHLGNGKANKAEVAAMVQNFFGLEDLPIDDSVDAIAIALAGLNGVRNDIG
Test: EMSA; EMSA: 50 nM 5'-FAM DNA, 0-2000 nM protein, 20 mM HEPES pH 7.5, 50 mM NaCl, 1 mM DTT, 10% DMSO, 1% glycerol, no metal listed, 37 C 60 min; 5% native PAGE in 1x TAE
Details: protein: recombinant; tags: His-SUMO N-terminal, removed (purified as WT); chain copies: 2; label: 5'-FAM on one strand; four-way junction, 13 bp homologous core

B1: 4Jh (structured_DNA)
DNA 1: GCAATTCGATCGTTGACATCTCGCGTGCTCGGTCAATCGGCAGATGCGGAGTGAAGTTCCAACGTTCGGC
DNA 2: CCTGCAGGATGGTAGGACGGCCTCGCAATCCCGATTGACCGAGCACGCGAGATGTCAACGATCGAATTGC
DNA 3: GCCGAACGTTGGAACTTCACTCCGCATCTGCCGATTGACCGAGTGGCGTGTTTCTGGTGGTTCCTAGGTC
DNA 4: GACCTAGGAACCACCAGAAACACGCCACTCGGTCAATCGGGATTGCGAGGCCGTCCTACCATCCTGCAGG
binding result: no binding
